Source: patent publication US20240270857A1 (CHIA TAI TIANQING PHARMACEUTICAL GROUP, published 2024)

T1: Human IL-1Rrp2/IL-1R6 protein, His Tag (ACROBiosystems, IL2-H52H6) (human, UniProt Q9HB29 20-335)
T1 construct: Bought protein; the soluble protein is likely only the extracellular part; also called hIL-36R; human IL36R antigen; not shown: His tag
T1 sequence: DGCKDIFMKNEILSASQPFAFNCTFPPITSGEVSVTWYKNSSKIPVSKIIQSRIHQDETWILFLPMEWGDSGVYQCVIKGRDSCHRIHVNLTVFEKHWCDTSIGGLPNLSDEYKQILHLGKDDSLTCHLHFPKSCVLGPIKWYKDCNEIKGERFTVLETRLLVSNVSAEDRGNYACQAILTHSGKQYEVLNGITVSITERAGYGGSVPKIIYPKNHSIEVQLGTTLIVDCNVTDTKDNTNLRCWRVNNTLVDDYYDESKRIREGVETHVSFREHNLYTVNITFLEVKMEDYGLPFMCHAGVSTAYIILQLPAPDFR


Experiments:
[1] = target: T1, Human IL-1Rrp2/IL-1R6 protein, His Tag …; experiment: BLI (ForteBio Octet), antibody on ProA sensor, 1:1 model
Description: The affinity of anti-IL-36R antibodies to CynoIL36R-ECD mFc and human IL-1Rrp2/IL-IR6 protein, His Tag (ACROBiosystems, IL2-H52H6) was measured by a ForteBio molecular interaction instrument. […] And then the biosensor was used to bind CynoIL36R-ECD mFc or human IL-1Rrp2/IL-1R6 protein, His Tag which was diluted by a gradient (the initial concentration was 200 nM, 2-fold gradient dilution), the response signals were detected in real time using a Fortebio molecular interaction instrument (SARTORIUS, octet red 96e), and association and dissociation curves were obtained. After the completion of dissociation in each cycle, the biosensor was regenerated for the next capture; the procedure was repeated until the affinity of the different anti-IL-36R antibodies for IL-36R was determined. The resulting data were analyzed by Fortebio Data Analysis 11.0 software in a 1:1 (Langmuir) binding model to determine kₐ (kₒₙ) and kd (koff) values, and the dissociation constant KD was calculated by KD=kd/kₐ. The detection method essentially followed the manufacturer's recommendations, and more information could be found at www.fortebio.com.
Affinity, binding and blocking assays for humanized antibodies hz72C1-1.1, hz72C1-1.2, hz72C1-1.3, hz72C1-2.1, hz72C1-2.2 and hz72C1-2.3 as well as hz84C4-1.1, hz84C4-1.2, hz84C4-1.3, hz84C4-1.4, hz84C4-1.5, hz84C4-2.1, hz84C4-2.2, hz84C4-2.3, hz84C4-2.4 and hz84C4-2.5 were performed according to the methods of Example 4, Example 5. Example 6, Example 7 and Example 8.

[2] = target: T1, Human IL-1Rrp2/IL-1R6 protein, His Tag …; experiment: ELISA, plate coated with human IL-1Rrp2/IL-1R6 His Tag, HRP-protein A/G, OD450
Description: The binding activity of anti-IL-36R antibodies to IL-36R was analyzed by ELISA using human IL-1Rrp2/IL-1R6 protein, His Tag (ACROBiosystems, IL2-H52H6) and CynoIL36R-ECD mFc (for detection of chimeric and humanized antibodies), and hIL36R-ECD hFc and CynoIL36R-ECD hFc protein (for detection of hybridoma antibodies) as antigens. A 96-well plate (Costar, 9018) was coated with 2 μg/mL antigen at 100 μL/well and incubated overnight at 4° C. After the 96-well plate was washed with a washing buffer (PBS containing 0.05% v/v Tween 20), a blocking buffer (PBS containing 2% bovine serum albumin) was added for blocking at 37° C. for 2 h. After the 96-well plate was washed with the washing buffer, 100 μL of the gradient diluted anti-IL-36R antibody of the present disclosure or the reference antibody BI655130 (the initial concentration of the antibody was 66 nM, 4-fold gradient dilution) was added to each well, and the plate was incubated at room temperature for 1 h. After the 96-well plate was washed with the washing buffer, 100 μL of horseradish peroxidase-conjugated recombinant protein A/G (TheroScientific, 32490) was added to each well, and the plate was incubated at room temperature for 1 h. After the 96-well plate was washed with the washing buffer, 100 μL of a TMB solution (Thermo, 00-4201-56) was added to each well, and the plate was incubated at room temperature for 2 min. Finally, 100 μL of a stop solution (2 N H₂SO₄) was added to each well to stop the reaction. Absorbance was read at 450 nm using a microplate reader (PE, Envision), the resulting data was analyzed using GraphPad Prism, and EC₅₀ was calculated. Binding EC₅₀ of the chimeric anti-IL-36R antibodies to hIL-36R in an ELISA assay is shown in FIG. 1. and binding EC₅₀ of the chimeric anti-IL-36R antibodies to CynoIL-36R in an ELISA assay is shown in FIG. 2. The binding of BI655130 is shown as a control, and the binding of IgG4 is shown as a negative control.

Kd [1] | koff [1] | kon [1] | EC50 [2] | Binder
0.831 nM | 5.12e-05 s⁻¹ | 61600 M⁻¹ s⁻¹ | 2.25 nM | hz84C4-2.3 (antibody, human IgG4 S228P, kappa, V domains shown, Humanized, human IgG4 / kappa) VH: QVQLVQSGAEVKKPGASVKVSCKASGYFFTSYWMNWVRQAPGQGLEWMGMIYPYDSETRYAQKFQGRVTMTVDKSTSTVYMELSSLRSEDTAVYYCASSTTAFAYWGQGTLVTVSS VL: DIQMTQSPSSLSASVGDRVTITCRASQDIGNALNWLQQKPGKAPKRLIYATSSLDPGVPSRFSGSRSGTDYTLTISSLQPEDFATYYCLQYASSPYTFGQGTKVEIKR
1.55 nM | 0.000142 s⁻¹ | 91500 M⁻¹ s⁻¹ | 0.533 nM | hz84C4-2.2 (antibody, human IgG4 S228P, kappa, V domains shown, Humanized, human IgG4 / kappa) VH: QVQLVQSGAEVKKPGASVKVSCKASGYFFTSYWMNWVRQAPGQGLEWMGYIHPYDSETRYAQKFQGRVTMTVDKSTSTVYMELSSLRSEDTAVYYCASSTTAFAYWGQGTLVTVSS VL: DIQMTQSPSSLSASVGDRVTITCRASQDIGNALNWLQQKPGKAPKRLIYATSSLDPGVPSRFSGSRSGTDYTLTISSLQPEDFATYYCLQYASSPYTFGQGTKVEIKR
1.44 nM | 0.000138 s⁻¹ | 96400 M⁻¹ s⁻¹ | 0.497 nM | hz84C4-2.5 (antibody, human IgG4 S228P, kappa, V domains shown, Humanized, human IgG4 / kappa) VH: QVQLVQSGAEVKKPGASVKVSCKVSGYFFTSYWMNWVNQAPGQGLEWMGMIHPYDSETRLAQKFKGRVTMTVDKSTSTVYMELSSLRSEDTAVYYCASSTTAFAYWGQGTLVTVSS VL: DIQMTQSPSSLSASVGDRVTITCRASQDIGNALNWLQQKPGKAPKRLIYATSSLDPGVPSRFSGSRSGTDYTLTISSLQPEDFATYYCLQYASSPYTFGQGTKVEIKR
1.88 nM | 0.000196 s⁻¹ | 105000 M⁻¹ s⁻¹ | 0.453 nM | hz84C4-2.4 (antibody, human IgG4 S228P, kappa, V domains shown, Humanized, human IgG4 / kappa) VH: QVQLVQSGAEVKKPGASVKVSCKASGYYFTSYWMNWVRQAPGQGLEWMGMIHPYDSETRLAQKFKGRVTMTVDKSTSTVYMELSSLRSEDTAVYYCASSTTAFAYWGQGTLVTVSS VL: DIQMTQSPSSLSASVGDRVTITCRASQDIGNALNWLQQKPGKAPKRLIYATSSLDPGVPSRFSGSRSGTDYTLTISSLQPEDFATYYCLQYASSPYTFGQGTKVEIKR
1.22 nM | 0.000116 s⁻¹ | 94500 M⁻¹ s⁻¹ | 0.558 nM | hz84C4-2.1 (antibody, human IgG4 S228P, kappa, V domains shown, Humanized, human IgG4 / kappa) VH: QVQLVQSGAEVKKPGASVKVSCKASGYFFTSYWMNWVRQAPGQGLEWMGMIHPYDSETRYAQKFQGRVTMTVDKSTSTVYMELSSLRSEDTAVYYCASSTTAFAYWGQGTLVTVSS VL: DIQMTQSPSSLSASVGDRVTITCRASQDIGNALNWLQQKPGKAPKRLIYATSSLDPGVPSRFSGSRSGTDYTLTISSLQPEDFATYYCLQYASSPYTFGQGTKVEIKR

Second part, the binder before the results:

Binder | Kd [1] | koff [1] | kon [1] | EC50 [2]
hz84C4-1.1 (antibody, human IgG4 S228P, kappa, V domains shown, Humanized, human IgG4 / kappa) VH: QVQLVQSGAEVKKPGASVKVSCKASGYFFTSYWMNWVRQAPGQGLEWMGMIHPYDSETRYAQKFQGRVTMTVDKSTSTVYMELSSLRSEDTAVYYCASSTTAFAYWGQGTLVTVSS VL: DIQMTQSPSSLSASVGDRVTITCRASQDIGNALNWYQQKPGKAPKRLIYATSSLDPGVPSRFSGSRSGTDFTLTISSLQPEDFATYYCLQYASSPYTFGQGTKVEIKR | 0.958 nM | 0.000102 s⁻¹ | 107000 M⁻¹ s⁻¹ | 0.509 nM
hz84C4-1.5 (antibody, human IgG4 S228P, kappa, V domains shown, Humanized, human IgG4 / kappa) VH: QVQLVQSGAEVKKPGASVKVSCKVSGYFFTSYWMNWVNQAPGQGLEWMGMIHPYDSETRLAQKFKGRVTMTVDKSTSTVYMELSSLRSEDTAVYYCASSTTAFAYWGQGTLVTVSS VL: DIQMTQSPSSLSASVGDRVTITCRASQDIGNALNWYQQKPGKAPKRLIYATSSLDPGVPSRFSGSRSGTDFTLTISSLQPEDFATYYCLQYASSPYTFGQGTKVEIKR | 1.34 nM | 0.000134 s⁻¹ | 100000 M⁻¹ s⁻¹ | 0.624 nM
hz84C4-1.3 (antibody, human IgG4 S228P, kappa, V domains shown, Humanized, human IgG4 / kappa) VH: QVQLVQSGAEVKKPGASVKVSCKASGYFFTSYWMNWVRQAPGQGLEWMGMIYPYDSETRYAQKFQGRVTMTVDKSTSTVYMELSSLRSEDTAVYYCASSTTAFAYWGQGTLVTVSS VL: DIQMTQSPSSLSASVGDRVTITCRASQDIGNALNWYQQKPGKAPKRLIYATSSLDPGVPSRFSGSRSGTDFTLTISSLQPEDFATYYCLQYASSPYTFGQGTKVEIKR | 0.527 nM | 3.26e-05 s⁻¹ | 61900 M⁻¹ s⁻¹ | 3.41 nM
hz84C4-1.2 (antibody, human IgG4 S228P, kappa, V domains shown, Humanized, human IgG4 / kappa) VH: QVQLVQSGAEVKKPGASVKVSCKASGYFFTSYWMNWVRQAPGQGLEWMGYIHPYDSETRYAQKFQGRVTMTVDKSTSTVYMELSSLRSEDTAVYYCASSTTAFAYWGQGTLVTVSS VL: DIQMTQSPSSLSASVGDRVTITCRASQDIGNALNWYQQKPGKAPKRLIYATSSLDPGVPSRFSGSRSGTDFTLTISSLQPEDFATYYCLQYASSPYTFGQGTKVEIKR | 1.61 nM | 0.000161 s⁻¹ | 100000 M⁻¹ s⁻¹ | 0.531 nM
hz84C4-1.4 (antibody, human IgG4 S228P, kappa, V domains shown, Humanized, human IgG4 / kappa) VH: QVQLVQSGAEVKKPGASVKVSCKASGYYFTSYWMNWVRQAPGQGLEWMGMIHPYDSETRLAQKFKGRVTMTVDKSTSTVYMELSSLRSEDTAVYYCASSTTAFAYWGQGTLVTVSS VL: DIQMTQSPSSLSASVGDRVTITCRASQDIGNALNWYQQKPGKAPKRLIYATSSLDPGVPSRFSGSRSGTDFTLTISSLQPEDFATYYCLQYASSPYTFGQGTKVEIKR | 1.98 nM | 0.000236 s⁻¹ | 119000 M⁻¹ s⁻¹ | 0.684 nM
